Molecular target: T1, thioredoxin (Escherichia coli (strain K12), UniProt P0AA25 2-109 = thioredoxin)
T1 construct: Negative control antigen; also called Trx; TrxA
Assay: ELISA (FIG. 64)

T1 sequence (P0AA25 2-109 limits assumed): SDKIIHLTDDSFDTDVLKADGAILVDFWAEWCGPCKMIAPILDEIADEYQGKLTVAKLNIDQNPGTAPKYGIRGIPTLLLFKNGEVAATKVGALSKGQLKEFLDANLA

B1: mouse human chimeric anti-R273H p53 antibody clone MH 13E4 (antibody, human IgG1, V domains shown)
VH: EVQLLETGGDLVTPGGSLKLSCAASGFSFSDYYMYWVRQTPEKRLEWVATISVGGTYTFYSDNVKGRFVISRDNARKNLHLEMNSLKSEDAAMYYCVRDGNDGKFLGYWGQGTFVTVTV
VL: DIVMTQSPLSLPVNLGDQVSLSCRSSQSIVHNNGDTYLEWYLQKPGQSPKLLIYKVSNRFSGVPDRFSGSGSGTDFTLKISRVEAEDLGIYYCFQGSHLPLTFGSGTKLELK
notes: Mouse Fv with human IgG1 constant region; also called chimeric 13E4
binding result: no binding (tested: 1 ng/µl)

Reference: patent US20230257457A1 (published 2023)
